According to patent US20230035659A1, “Compositions and Methods for TTR Gene Editing and Treating ATTR Amyloidosis Comprising a Corticosteroid or Use Thereof” (Intellia Therapeutics, Inc., priority 2019, published 2023):
Strand notation (5' to 3'): a small letter for the sugar, then the base; units joined by * are phosphorothioate-linked, units joined directly phosphodiester-linked; [ ] holds rarer units or linkages, { } end groups; capitals alone tell only the bases. m = 2'-O-methyl; r = 2'-OH (RNA)

Test system: mouse TTR
Assay: Serum mouse TTR (ELISA) after LNP dosing of mice with murine TTR
Type: in vivo
Conditions: wild type CD-1 mice; LNP 45:44:9:2, N:P 6; 1, 0.3, 0.1, 0.03, 0.01 mg/kg
Procedure: Unless otherwise noted, CD-1 female mice, ranging from 6-10 weeks of age were used in each study. Animals were weighed and grouped according to body weight for preparing dosing solutions based on group average weight. LNPs were dosed via the lateral tail vein in a volume of 0.2 mL per animal (approximately 10 mL per kilogram body weight). […] Body weight was measured at twenty-four hours post-administration, and animals were euthanized at various time points by exsanguination via cardiac puncture under isoflourane anesthesia. Blood was collected into serum separator tubes or into tubes containing buffered sodium citrate for plasma as described herein. […]
Blood was collected and the serum was isolated as indicated. The total mouse TTR serum levels were determined using a Mouse Prealbumin (Transthyretin) ELISA Kit (Aviva Systems Biology, Cat. OKIA00111); rat TTR serum levels were measured using a rat specific ELISA kit (Aviva Systems Biology catalog number OKIA00159); human TTR serum levels were measured using a human specific ELISA kit (Aviva Systems Biology catalog number OKIA00081); each according to manufacture's protocol. […] The absorbance of the contents was measured on the Spectramax M5 plate reader with analysis using SoftmaxPro version 7.0 software. […]

B1: G000502: TTR Cyno specific sgRNA modified sequence, SEQ ID NO: 114; guide sequence of CR000689; cross homologous between mouse and cyno (nucleic acid)
guide: mA*mC*mA*rCrArArArUrArCrCrArGrUrCrCrArGrCrGrGrUrUrUrUrArGrAmGmCmUmAmGmAmAmAmUmAmGmCrArArGrUrUrArArArArUrArArGrGrCrUrArGrUrCrCrGrUrUrArUrCrAmAmCmUmUmGmAmAmAmAmAmGmUmGmGmCmAmCmCmGmAmGmUmCmGmGmUmGmCmU*mU*mU*mU
  serum mouse TTR levels, dose response: dose response
